Assay [1] addresses F-actin (UniProt P68135). Put plainly: co-sedimentation.
Assay [2] addresses GST-EPLIN-α (recombinant full-length EPLIN-α GST-fusion protein) (UniProt Q9UHB6). The assay is described as follows: pull-down.

The values that follow come from publication PMC2172667.

Sequence of his-EPLIN-α (Q9UHB6 161-759): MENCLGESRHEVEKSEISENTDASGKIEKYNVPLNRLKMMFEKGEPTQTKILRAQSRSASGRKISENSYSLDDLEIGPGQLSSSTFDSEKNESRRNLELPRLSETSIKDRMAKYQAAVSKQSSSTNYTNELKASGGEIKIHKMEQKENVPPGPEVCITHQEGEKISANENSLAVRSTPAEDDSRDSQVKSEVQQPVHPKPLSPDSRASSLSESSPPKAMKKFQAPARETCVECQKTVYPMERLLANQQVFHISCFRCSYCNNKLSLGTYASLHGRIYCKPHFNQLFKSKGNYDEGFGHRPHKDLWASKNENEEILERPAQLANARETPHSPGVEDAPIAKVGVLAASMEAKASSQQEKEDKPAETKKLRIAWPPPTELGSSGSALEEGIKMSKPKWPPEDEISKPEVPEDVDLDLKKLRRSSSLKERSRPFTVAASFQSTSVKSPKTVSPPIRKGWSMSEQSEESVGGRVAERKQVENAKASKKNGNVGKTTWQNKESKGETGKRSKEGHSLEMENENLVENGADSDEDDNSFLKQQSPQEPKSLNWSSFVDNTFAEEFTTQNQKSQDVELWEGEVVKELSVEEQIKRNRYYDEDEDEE
Sequence of GST-EPLIN-α (recombinant full-length EPLIN-α GST-fusion protein) (Q9UHB6 161-759): as above

As for “his-EPLIN-α (from UniProt Q9UHB6-2 1-599) (natural protein)”, in assay [1], the Kd was found to be 100 nM and the stoichiometry N (actin molecules per his-EPLIN-α) amounted to 2.

For the substance “G-actin (from UniProt P68135 1-377) (natural protein)”, the percent of actin monomers pelleted in assay [2] is 10%.
